According to the supplement of paper PMC6757056:
± gives the standard deviation of the averaged measurements.

B1: library; a variant is named by its letters at N, in order (parent)
chain: GCUGUCACCGAGAAACUGUGAAGUAUAUCUUAAACCUGGGCACUUAAAAGAUAUAUGGAGUUAGUAGUGCAACCUGCUCGGUCUGAUGAGUCCNNNNNNGGACGAAACAGC

Legend:
cyclic di-GMP [1] = variants of: B1; assay: FACS-Seq fitted mean relative fluorescence mCherry/BFP without ligand (log10 relative fluorescence); HEK293T; ligand: cyclic di-GMP (c-di-GMP-II aptamer); higher = higher reporter protein expression; conditions: ligand present: no
Summary of the method: (§1)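 After lentiviral transduction, HEK293T library cells bearing an mCherry ribozyme-switch reporter and an EF1α-BFP marker were enriched. They were then held for 48 h with or without ligand and sorted by mCherry/BFP into 6 bins, and each bin's genomic DNA was PCR-amplified, barcoded and MiSeq-sequenced. Fluorescence is expressed as a normalized fitted mean: the normal mean of log10(mCherry/BFP) bin counts, scaled to five spiked-in control ribozymes.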

cyclic di-GMP [2] = variants of: B1; assay: normalized RNA/DNA level without ligand (relative to sTRSVctl = 100) (log10 (% of sTRSVctl)); HEK293T; ligand: cyclic di-GMP (c-di-GMP-II aptamer); higher = less ribozyme self-cleavage, higher mRNA level; conditions: reporter: mCherry (pCS4076), ligand present: no
Summary of the method: (§2)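 Ribozyme switch library plasmids with mCherry reporters (eGFP in certain ligand experiments) went into HEK293T cells at 4 µg per 6-well well. Where ligand was used, it was applied 1 h before transfection, and total RNA was extracted with EDTA 72 h later for reverse transcription, amplification, barcoding and sequencing. RNA level is the RNA-to-DNA read ratio normalized to a spiked-in non-cleaving sequence or to the leading sequences, then scaled and log-transformed. Scaling was ×100 with log10, the leading set comprised 25 sequences, and the cutoff was ≥100 DNA reads.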

cyclic di-GMP [3] = variants of: B1; assay: FACS-Seq fitted mean relative fluorescence mCherry/BFP with ligand (log10 relative fluorescence); HEK293T; ligand: cyclic di-GMP (c-di-GMP-II aptamer); ligand concentration (+) FACS-Seq: 1 mM; higher = higher reporter protein expression; conditions: ligand present: yes
Summary of the method: as §1

cyclic di-GMP [4] = variants of: B1; assay: normalized RNA/DNA level with ligand (relative to sTRSVctl = 100) (log10 (% of sTRSVctl)); HEK293T; ligand: cyclic di-GMP (c-di-GMP-II aptamer); ligand concentration (+) RNA-Seq: 1 mM; higher = less ribozyme self-cleavage, higher mRNA level; conditions: reporter: mCherry (pCS4076), ligand present: yes
Summary of the method: as §2

## AUAGAC
Cyclic di-GMP [1]
  FACS-Seq fitted mean (log10): -0.109 ± 0.028
Cyclic di-GMP [2]
  normalized RNA/DNA level without ligand (log10): 1.61 ± 0.05
Cyclic di-GMP [3]
  FACS-Seq fitted mean (log10): 0.0802 ± 0.041
Cyclic di-GMP [4]
  normalized RNA/DNA level with ligand (log10): 1.76 ± 0.091

## AUAGAA
Cyclic di-GMP [1]
  FACS-Seq fitted mean (log10): -0.406 ± 0.06
Cyclic di-GMP [2]
  normalized RNA/DNA level without ligand (log10): 1.39 ± 0.077
Cyclic di-GMP [3]
  FACS-Seq fitted mean (log10): -0.217 ± 0.058
Cyclic di-GMP [4]
  normalized RNA/DNA level with ligand (log10): 1.61 ± 0.093

## CUAUCC
Cyclic di-GMP [1]
  FACS-Seq fitted mean (log10): -0.679 ± 0.11
Cyclic di-GMP [2]
  normalized RNA/DNA level without ligand (log10): 1.77 ± 0.028
Cyclic di-GMP [3]
  FACS-Seq fitted mean (log10): -0.371 ± 0.13
Cyclic di-GMP [4]
  normalized RNA/DNA level with ligand (log10): 1.88 ± 0.13

## CUAUCU
Cyclic di-GMP [1]
  FACS-Seq fitted mean (log10): -0.234 ± 0.066
Cyclic di-GMP [2]
  normalized RNA/DNA level without ligand (log10): 1.62 ± 0.021
Cyclic di-GMP [3]
  FACS-Seq fitted mean (log10): -0.142 ± 0.059
Cyclic di-GMP [4]
  normalized RNA/DNA level with ligand (log10): 1.76 ± 0.11

## GUGUGC
Cyclic di-GMP [1]
  FACS-Seq fitted mean (log10): -0.9793 ± 0.0011
Cyclic di-GMP [2]
  normalized RNA/DNA level without ligand (log10): 1.4 ± 0.12
Cyclic di-GMP [3]
  FACS-Seq fitted mean (log10): -0.724 ± 0.0079
Cyclic di-GMP [4]
  normalized RNA/DNA level with ligand (log10): 1.63 ± 0.09

## UUGUAG
Cyclic di-GMP [1]
  FACS-Seq fitted mean (log10): -0.163 ± 0.065
Cyclic di-GMP [2]
  normalized RNA/DNA level without ligand (log10): 1.6682 ± 0.00036
Cyclic di-GMP [3]
  FACS-Seq fitted mean (log10): 0.112 ± 0.032
Cyclic di-GMP [4]
  normalized RNA/DNA level with ligand (log10): 1.83 ± 0.14

## UUGUAU
Cyclic di-GMP [1]
  FACS-Seq fitted mean (log10): 0.0117 ± 0.057
Cyclic di-GMP [2]
  normalized RNA/DNA level without ligand (log10): 1.66 ± 0.051
Cyclic di-GMP [3]
  FACS-Seq fitted mean (log10): 0.163 ± 0.013
Cyclic di-GMP [4]
  normalized RNA/DNA level with ligand (log10): 1.82 ± 0.16

## CUCAUA
Cyclic di-GMP [1]
  FACS-Seq fitted mean (log10): -0.575 ± 0.039
Cyclic di-GMP [2]
  normalized RNA/DNA level without ligand (log10): 1.43 ± 0.079
Cyclic di-GMP [3]
  FACS-Seq fitted mean (log10): -0.298 ± 0.012
Cyclic di-GMP [4]
  normalized RNA/DNA level with ligand (log10): 1.65 ± 0.14

## CUACGA
Cyclic di-GMP [1]
  FACS-Seq fitted mean (log10): -0.199 ± 0.061
Cyclic di-GMP [2]
  normalized RNA/DNA level without ligand (log10): 1.62 ± 0.038
Cyclic di-GMP [3]
  FACS-Seq fitted mean (log10): 0.0797 ± 0.066
Cyclic di-GMP [4]
  normalized RNA/DNA level with ligand (log10): 1.79 ± 0.086

## GUGGAC
Cyclic di-GMP [1]
  FACS-Seq fitted mean (log10): -0.519 ± 0.08
Cyclic di-GMP [2]
  normalized RNA/DNA level without ligand (log10): 1.55 ± 0.092
Cyclic di-GMP [3]
  FACS-Seq fitted mean (log10): -0.171 ± 0.053
Cyclic di-GMP [4]
  normalized RNA/DNA level with ligand (log10): 1.75 ± 0.095

## GUGGAA
Cyclic di-GMP [1]
  FACS-Seq fitted mean (log10): -0.382 ± 0.021
Cyclic di-GMP [2]
  normalized RNA/DNA level without ligand (log10): 1.4 ± 0.087
Cyclic di-GMP [3]
  FACS-Seq fitted mean (log10): -0.0891 ± 0.076
Cyclic di-GMP [4]
  normalized RNA/DNA level with ligand (log10): 1.63 ± 0.092

## GUGGAU
Cyclic di-GMP [1]
  FACS-Seq fitted mean (log10): -0.528 ± 0.045
Cyclic di-GMP [2]
  normalized RNA/DNA level without ligand (log10): 1.52 ± 0.093
Cyclic di-GMP [3]
  FACS-Seq fitted mean (log10): -0.192 ± 0.024
Cyclic di-GMP [4]
  normalized RNA/DNA level with ligand (log10): 1.72 ± 0.072

## UUGACA
Cyclic di-GMP [1]
  FACS-Seq fitted mean (log10): -0.91 ± 0.064
Cyclic di-GMP [2]
  normalized RNA/DNA level without ligand (log10): 1.701 ± 0.0052
Cyclic di-GMP [3]
  FACS-Seq fitted mean (log10): -0.508 ± 0.077
Cyclic di-GMP [4]
  normalized RNA/DNA level with ligand (log10): 1.83 ± 0.14

## CUGAGU
Cyclic di-GMP [1]
  FACS-Seq fitted mean (log10): -0.459 ± 0.047
Cyclic di-GMP [2]
  normalized RNA/DNA level without ligand (log10): 1.7 ± 0.022
Cyclic di-GMP [3]
  FACS-Seq fitted mean (log10): -0.264 ± 0.00087
Cyclic di-GMP [4]
  normalized RNA/DNA level with ligand (log10): 1.83 ± 0.12

## GUGCAU
Cyclic di-GMP [1]
  FACS-Seq fitted mean (log10): -0.575 ± 0.042
Cyclic di-GMP [2]
  normalized RNA/DNA level without ligand (log10): 1.73 ± 0.028
Cyclic di-GMP [3]
  FACS-Seq fitted mean (log10): -0.302 ± 0.062
Cyclic di-GMP [4]
  normalized RNA/DNA level with ligand (log10): 1.85 ± 0.18

## AUGCGA
Cyclic di-GMP [1]
  FACS-Seq fitted mean (log10): -0.411 ± 0.064
Cyclic di-GMP [2]
  normalized RNA/DNA level without ligand (log10): 1.49 ± 0.079
Cyclic di-GMP [3]
  FACS-Seq fitted mean (log10): -0.0888 ± 0.022
Cyclic di-GMP [4]
  normalized RNA/DNA level with ligand (log10): 1.66 ± 0.13

## AUGAUG
Cyclic di-GMP [1]
  FACS-Seq fitted mean (log10): -0.239 ± 0.054
Cyclic di-GMP [2]
  normalized RNA/DNA level without ligand (log10): 1.6 ± 0.069
Cyclic di-GMP [3]
  FACS-Seq fitted mean (log10): 0.056 ± 0.078
Cyclic di-GMP [4]
  normalized RNA/DNA level with ligand (log10): 1.77 ± 0.11

## AUGAUU
Cyclic di-GMP [1]
  FACS-Seq fitted mean (log10): -0.57 ± 0.11
Cyclic di-GMP [2]
  normalized RNA/DNA level without ligand (log10): 1.41 ± 0.17
Cyclic di-GMP [3]
  FACS-Seq fitted mean (log10): -0.0144 ± 0.094
Cyclic di-GMP [4]
  normalized RNA/DNA level with ligand (log10): 1.62 ± 0.11
